Experimental data from patent US10274499B2, “SH2 domain variants” (THE UNIVERSITY OF WESTERN ONTARIO, priority 2012, dated 2019).

Legend:
EGFR = biological target: T1, EGFR (Homo sapiens, UniProt P00533); assay: immunoprecipitation of GFP-fused SH2 domains with EGFR in HEK 293 cells; assay type: cell-based; conditions: GFP-fusion expressed in HEK 293 cells, EGF 100 ng/ml, anti-GFP and anti-EGFR antibodies
T1 construct: endogenous in cells; host or cells: HEK 293
Excerpt: The three variant SH2 domains mentioned in the previous sentence were dubbed as 8V/10A/15L-substituted SH2 domains, or the TrM SH2 domains, in the following descriptions, as well as in FIG. 11 and FIG. 12. The wild-type (Wt) and TrM SH2 domains, subcloned into the pEGFPC2 vector, were expressed in the HEK 293 cells as a GFP-fusion protein. Methods used in this and the following sections are described below.
Anti-GFP rabbit polyclonal antibody was purchased from Sigma-Aldrich. Anti-EGFR rabbit polyclonal antibody was purchased from Millipore. Anti-p44/42 MAPK (Erk1/2) mouse monoclonal antibody, and anti-phospho-p44/42 MAPK (Thr202/Tyr204) mouse monoclonal antibody were purchased from Cell Signaling. HEK 293 cells were grown in Dulbecco's modification of Eagle's medium (DMEM, Sigma-Aldrich) supplemented with 10% fetal bovine serum (FBS, SAFC Biosciences), 50 units/ml penicillin and 50 μg/ml streptomycin (GIBCO Invitrogen Corp.) in a humidified atmosphere of 5% CO2 in air at 37° C. EGF (Invitrogen) at a final concentration of 100 ng/ml was added to the medium at the indicated time point. Transient transfections were carried out with jet-PEI (PolyPlus-Transfection; Illkirch, France) according to manufacturer's instruction. […]

[1] = system: seven fluorescein-labeled pTyr-containing peptides; assay: in-solution fluorescence polarization binding assay, set of seven peptides; conditions: average over seven peptides, relative to the wild type of the same SH2 domain
Experimental: Each peptide was synthesized on the TentaGel amide resin (INTAVIS Inc.) and N-terminally labeled with fluorescein using NHS-fluorescein (Thermo Fisher Scientific). Each of the 13 variant and the wild-type SH2 domain was produced by overexpression in the Escherichia coli BL21(DE3) strain cultured in LB media (EMD Chemicals). Expression was induced by 0.3 mM isopropyl β-D-1-thiogalactopyranoside (IPTG), and the cell culture was incubated for 5 hours at 37° C. The cells were harvested by centrifuge, and broken on ice, in buffer solution containing 20 mM sodium phosphate, 0.1 M NaCl, 20 mM imidazole, 1 mg/ml lysozyme and 1% Triton-X 100, adjusted at pH 7.8. Affinity purification was performed with the Ni-NTA agarose resin (Qiagen Inc.), according to the manufacturer's instruction. […] Measurements of fluorescence polarization were conducted by titrating the SH2 domain concentration, while keeping the peptide concentration constant. Kd values were calculated with the GraphPad Prism software, by assuming the one-site binding model (GraphPad Software).
The determined Kd values of interaction between the 14 SH2 domains (including the wild-type) and seven peptides were listed in FIG. 7(a). […]
Fluorescence polarization assay was conducted to determine Kd values of the interaction between the wild-type or variant Src SH2 domain and seven fluorescein-labeled pTyr-containing peptides (FIG. 9a).

Substance	binding to EGFR (immunoprecipitation) (EGFR)	average affinity increase, Kd[wild-type] divided by Kd[variant] [1] [fold]
wild-type Grb2 SH2 domain: polypeptide between Met55 and Pro158 of the human Grb2 [reference compound]	Weak binding	–
T8V: variant Fyn SH2 domain, Thr at position 8 to Val; SEQ ID NO:5 (RKDAERQLLSFGNPRGTFLIRESETVKGAYSLSIRDWDDMKGDHVKHYK; Synthetic construct T8V)	–	1.4
wild-type Src SH2 domain: human Src SH2 domain between Asp144 and Lys252; SEQ ID NO:18 [reference compound]	did not show detectable binding	–
